In this test the target is HIV-1 Env-pseudoviruses (neutralization panels). Nature of the test: cell-based or functional assay.

These results are taken from patent US20140322163A1.

Numbering of substitutions follows the chain as printed. Numbers in names are those of the source. A value given as a limit tells only on which side of the number the result lay.

B1: VRC07 G54H heavy chain complemented with VRC01 light chain (antibody, V domains shown)
VH: QVRLSQSGGQMKKPGDSMRISCRASGYEFINCPINWIRLAPGKRPEWMGWMKPRHGAVSYARQLQGRVTMTRDMYSETAFLELRSLTSDDTAVYFCTRGKYCTARDYYNWDFEHWGQGTPVTVSS
VL: EIVLTQSPGTLSLSPGETAIISCRTSQYGSLAWYQQRPGQAPRLVIYSGSTRAAGIPDRFSGSRWGPDYNLTISNLESGDFGVYYCQQYEFFGQGTKVQVDI
B1 had a fold improvement of neutralization over wild type VRC07 (IC50), six-virus panel, TZM-bl of 2.3 fold; a fold improvement of neutralization over wild type VRC07 (IC80), six-virus panel, TZM-bl of 2.5 fold; a fold increase of neutralization over VRC01 of 7 fold; a fold increase of neutralization over VRC07 of 2.5 fold. The same molecule had a fold increase of neutralization potency compared to VRC07 heavy chain with VRC01 light chain above 2 fold.

B2: VRC07 G54W heavy chain complemented with VRC01 light chain (antibody, V domains shown)
VH: B1 VH with H55W
VL: B1 VL
B2 returned a fold increase of neutralization potency over VRC01 of 13 fold; a fold increase of neutralization potency over VRC07 of 4.8 fold; a neutralization potency relative to VRC07, panel of 7-12 HIVs above 2 fold; a neutralization potency relative to mature VRC01, panel of 7-12 HIVs above 8 fold.
